The target of assay [1] is T1, human FcγRIIIa type V (allotype V158) extracellular domain with C-terminal His tag (human, UniProt P08637 17-208).
T1 construct: extracellular domain; also called FcγRIIIaV; FrgRIIIaV
In words: SPR (Biacore), captured antibody, FcγR analyte.
T1 sequence (P08637 17-208 F176V): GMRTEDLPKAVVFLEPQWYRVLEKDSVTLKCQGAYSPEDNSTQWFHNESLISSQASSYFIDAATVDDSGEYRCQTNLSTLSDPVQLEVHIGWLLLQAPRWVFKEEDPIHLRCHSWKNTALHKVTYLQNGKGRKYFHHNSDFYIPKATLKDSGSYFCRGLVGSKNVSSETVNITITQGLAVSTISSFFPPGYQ

Assay [2] has as its target T2, human FcγRIIa type R (allotype R131) extracellular domain with C-terminal His tag (human, UniProt P12318 34-217).
T2 construct: extracellular domain; also called FcγRIIaR; FrgRIIaR
T2 sequence (looked up): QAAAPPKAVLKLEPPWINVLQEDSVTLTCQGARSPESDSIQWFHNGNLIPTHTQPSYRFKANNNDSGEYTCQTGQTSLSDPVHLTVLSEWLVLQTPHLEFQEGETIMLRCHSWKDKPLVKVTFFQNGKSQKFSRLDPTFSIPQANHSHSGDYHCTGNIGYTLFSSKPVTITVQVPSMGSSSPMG
In words: SPR (Biacore), captured antibody, FcγR analyte.

For assay [3], the target named is T3, human FcγRIa extracellular domain with C-terminal His tag (human, UniProt P12314 16-292).
T3 construct: extracellular domain; also called FrgRIa
Briefly: SPR (Biacore), captured antibody, FcγR analyte.
T3 sequence (P12314 16-292): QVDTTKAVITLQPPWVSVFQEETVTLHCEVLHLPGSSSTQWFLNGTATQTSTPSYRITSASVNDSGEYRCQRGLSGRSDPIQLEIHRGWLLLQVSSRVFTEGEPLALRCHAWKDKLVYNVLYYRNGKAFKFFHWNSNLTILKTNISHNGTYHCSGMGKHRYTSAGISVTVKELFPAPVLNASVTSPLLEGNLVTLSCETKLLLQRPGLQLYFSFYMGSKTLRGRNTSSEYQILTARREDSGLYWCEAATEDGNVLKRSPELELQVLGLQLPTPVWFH

Assay [4] addresses T4, human FcγRIIa type H (allotype H131) extracellular domain with C-terminal His tag (human, UniProt P12318 34-217).
T4 construct: extracellular domain; also called FcγRIIaH; FrgRIIaH
T4 sequence (looked up): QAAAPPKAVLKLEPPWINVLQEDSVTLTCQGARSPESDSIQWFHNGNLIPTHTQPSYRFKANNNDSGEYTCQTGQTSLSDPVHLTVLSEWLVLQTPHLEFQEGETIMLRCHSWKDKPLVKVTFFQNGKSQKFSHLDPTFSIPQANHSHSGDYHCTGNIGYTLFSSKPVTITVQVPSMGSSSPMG
In words: SPR (Biacore), captured antibody, FcγR analyte.

Assay [5] concerns the target T5, human FcγRIIb extracellular domain with C-terminal His tag (human, UniProt P31994 43-217).
T5 construct: extracellular domain; not shown: His tag at the C terminus
T5 sequence (looked up): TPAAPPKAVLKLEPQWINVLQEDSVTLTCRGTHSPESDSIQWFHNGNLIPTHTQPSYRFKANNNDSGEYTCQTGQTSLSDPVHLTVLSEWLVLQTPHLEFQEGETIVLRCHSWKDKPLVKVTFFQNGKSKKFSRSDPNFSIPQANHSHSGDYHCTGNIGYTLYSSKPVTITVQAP
In words: ratio of SPR KDs, FcγRIIaH over FcγRIIb.

The target of assay [6] is T5, human FcγRIIb extracellular domain with …. In words: SPR (Biacore); parent is IL6R-B3/IL6R-L.
In assay [7] the target is T6, human FcγRIa extracellular domain with C-terminal His tag (human, UniProt P12314 16-292).
T6 construct: not shown: His tag at the C terminus
Briefly: SPR (Biacore), antibody captured, FcγR analyte.
T6 sequence (P12314 16-292): as the sequence (P12314 16-292) above

The target in assay [8] is T5, human FcγRIIb extracellular domain with …. Briefly: ratio of SPR KDs, FcγRIIaR over FcγRIIb.
Assay [9] concerns the target T7, human FcγRIIIa type V (allotype V158) extracellular domain with C-terminal His tag (human, UniProt P08637 17-208).
T7 construct: extracellular domain; also called FcγRIIIaV; FcγRIIIa V type; not shown: His tag at the C terminus
Briefly: SPR (Biacore), antibody captured, FcγR analyte.
T7 sequence (P08637 17-208 F176V): as the sequence (P08637 17-208 F176V) above

Assay [10] addresses T8, FcγRIIb extracellular domain with C-terminal His tag (human, UniProt P31994 43-217).
T8 construct: extracellular domain
T8 sequence (looked up): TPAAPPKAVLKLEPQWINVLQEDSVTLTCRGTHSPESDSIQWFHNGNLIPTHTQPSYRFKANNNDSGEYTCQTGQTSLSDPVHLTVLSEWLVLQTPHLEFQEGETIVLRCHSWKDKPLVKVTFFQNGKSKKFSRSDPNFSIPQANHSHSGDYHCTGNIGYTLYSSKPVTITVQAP
Briefly: SPR; KD for FcγRIIaH divided by KD for FcγRIIb.

The target in assay [11] is T8, FcγRIIb extracellular domain with …. Briefly: SPR (Biacore), antibody captured, FcγR as analyte.
Assay [12] has as its target T9, FcγRIIa type H (allotype H131) extracellular domain with C-terminal His tag (human, UniProt P12318 34-217).
T9 construct: extracellular domain; also called FcγRIIaH; FcγRIIa H type
T9 sequence (looked up): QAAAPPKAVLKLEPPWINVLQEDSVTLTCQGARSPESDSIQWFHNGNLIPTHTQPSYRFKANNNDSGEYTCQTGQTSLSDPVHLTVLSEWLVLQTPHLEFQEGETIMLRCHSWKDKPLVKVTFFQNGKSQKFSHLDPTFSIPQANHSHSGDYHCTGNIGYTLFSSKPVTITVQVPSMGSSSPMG
Briefly: SPR (Biacore), antibody captured, FcγR as analyte.

The target in assay [13] is T10, FcγRIIa type R (allotype R131) extracellular domain with C-terminal His tag (human, UniProt P12318 34-217).
T10 construct: extracellular domain; also called FcγRIIaR; FcγRIIa R type
T10 sequence (looked up): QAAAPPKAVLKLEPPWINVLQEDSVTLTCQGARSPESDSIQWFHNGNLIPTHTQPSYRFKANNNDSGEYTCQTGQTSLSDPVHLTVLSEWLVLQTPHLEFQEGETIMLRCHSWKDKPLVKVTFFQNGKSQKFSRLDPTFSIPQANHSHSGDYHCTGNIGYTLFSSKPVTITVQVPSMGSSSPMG
Briefly: SPR; KD of IL6R-B3/IL6R-L divided by KD of the variant.

Assay [14] concerns the target T8, FcγRIIb extracellular domain with …. The assay is described as above.
Assay [15] has the same target. Briefly: SPR; KD for FcγRIIaR divided by KD for FcγRIIb.

B1: IL6R-BP195/IL6R-L (antibody, human IgG1, kappa, name in EU numbering)
heavy: QVQLQESGPGLVKPSETLSLTCAVSGHSISHDHAWSWVRQPPGEGLEWIGFISYSGITNYNPSLQGRVTISRDNSKNTLYLQMNSLRAEDTAVYYCARSLARTTAMDYWGEGTLVTVSSASTKGPSVFPLAPSSKSTSGGTAALGCLVKDYFPEPVTVSWNSGALTSGVHTFPAVLQSSGLYSLSSVVTVPSSSLGTQTYICNVNHKPSNTKVDKKVEPKSCDKTHTCPPCPAPDYLGDDSVFLFPPKPKDTLMISRTPEVTCVVVDVSDEDGEVKFNWYVDGVEVHNAKTKPREEQDNSTYRVVSVLTVLHQDWLNGKEYKCKVSNAALPKPIEKTISKAKGQPREPQVYTLPPSRDELTKNQVSLTCLVKGFYPSDIAVEWESNGQPENNYKTTPPVLDSDGSFFLYSKLTVDKSRWQQGNVFSCSVMHEALHNHYTQESLSLSP
light: not shown
notes: Alterations introduced into IL6R-B3, EU numbering; copies: 2 + 2
With B1, the relative binding activity in assay [1] was 221 % of IL6R-BF648/IL6R-L binding; in [2], 661 % of IL6R-BF648/IL6R-L binding; in assay [3], 68 % of IL6R-BF648/IL6R-L binding; in assay [4] it was 344 % of IL6R-BF648/IL6R-L binding.

B2: IL6R-BP195/IL6R-L (antibody, human IgG1, kappa, name in EU numbering)
heavy: QVQLQESGPGLVKPSETLSLTCAVSGHSISHDHAWSWVRQPPGEGLEWIGFISYSGITNYNPSLQGRVTISRDNSKNTLYLQMNSLRAEDTAVYYCARSLARTTAMDYWGEGTLVTVSSASTKGPSVFPLAPSSKSTSGGTAALGCLVKDYFPEPVTVSWNSGALTSGVHTFPAVLQSSGLYSLSSVVTVPSSSLGTQTYICNVNHKPSNTKVDKKVEPKSCDKTHTCPPCPAPDYLGDDSVFLFPPKPKDTLMISRTPEVTCVVVDVSDEDGEVKFNWYVDGVEVHNAKTKPREEQDNSTYRVVSVLTVLHQDWLNGKEYKCKVSNAALPKPIEKTISKAKGQPREPQVYTLPPSRDELTKNQVSLTCLVKGFYPSDIAVEWESNGQPENNYKTTPPVLDSDGSFFLYSKLTVDKSRWQQGNVFSCSVMHEALHNHYTQESLSLSP
light: not shown
notes: EU numbering; copies: 2 + 2
Turning to B2, the “KD(IIaH)/KD(IIb)” value in assay [5] stood at 201. Moreover, the “KD(IIb) of the parent polypeptide/KD(IIb) of altered polypeptide” value in assay [6] amounted to 62.3 fold. Also, the Kd in assay [7] was 0.026 µM. For the same molecule, the “KD(IIaR)/KD(IIb)” value in assay [8] stood at 18.2.

B3: IL6R-BP217/IL6R-L (antibody, human IgG1, kappa, name in EU numbering)
heavy: QVQLQESGPGLVKPSETLSLTCAVSGHSISHDHAWSWVRQPPGEGLEWIGFISYSGITNYNPSLQGRVTISRDNSKNTLYLQMNSLRAEDTAVYYCARSLARTTAMDYWGEGTLVTVSSASTKGPSVFPLAPSSKSTSGGTAALGCLVKDYFPEPVTVSWNSGALTSGVHTFPAVLQSSGLYSLSSVVTVPSSSLGTQTYICNVNHKPSNTKVDKKVEPKSCDKTHTCPPCPAPELLGDDSVFLFPPKPKDTLMISRTPEVTCVVVDVQDEDGEVKFNWYVDGVEVHNAKTKPREEQDNSTYRVVSVLTVLHQDWLNGKEYKCKVSNKALPKPIEKTISKAKGQPREPQVYTLPPSRDELTKNQVSLTCLVKGFYPSDIAVEWESNGQPENNYKTTPPVLDSDGSFFLYSKLTVDKSRWQQGNVFSCSVMHEALHNHYTQESLSLSP
light: not shown
notes: EU numbering; copies: 2 + 2
B3: binding in [9] was characterised by a dissociation constant (Kd) of 60 µM.

B4: IL6R-BP198/IL6R-L (antibody, human IgG1, kappa, name in EU numbering)
heavy: QVQLQESGPGLVKPSETLSLTCAVSGHSISHDHAWSWVRQPPGEGLEWIGFISYSGITNYNPSLQGRVTISRDNSKNTLYLQMNSLRAEDTAVYYCARSLARTTAMDYWGEGTLVTVSSASTKGPSVFPLAPSSKSTSGGTAALGCLVKDYFPEPVTVSWNSGALTSGVHTFPAVLQSSGLYSLSSVVTVPSSSLGTQTYICNVNHKPSNTKVDKKVEPKSCDKTHTCPPCPAPDYLGGDSVFLFPPKPKDTLMISRTPEVTCVVVDVSDEDGEVKFNWYVDGVEVHNAKTKPREEQYNSTYRVVSVLTVLHQDWLNGKEYKCKVSNAALPKPIEKTISKAKGQPREPQVYTLPPSRDELTKNQVSLTCLVKGFYPSDIAVEWESNGQPENNYKTTPPVLDSDGSFFLYSKLTVDKSRWQQGNVFSCSVMHEALHNHYTQESLSLSP
light: not shown
notes: EU numbering; copies: 2 + 2
On to B4, for which the “KD(IIaH)/KD(IIb)” value in assay [5] was 102. The “KD(IIb) of the parent polypeptide/KD(IIb) of altered polypeptide” value in assay [6] is 15.7 fold. In assay [8], the “KD(IIaR)/KD(IIb)” value stood at 11.

B5: IL6R-BP231/IL6R-L (antibody, human IgG1, kappa, name in EU numbering)
heavy: QVQLQESGPGLVKPSETLSLTCAVSGHSISHDHAWSWVRQPPGEGLEWIGFISYSGITNYNPSLQGRVTISRDNSKNTLYLQMNSLRAEDTAVYYCARSLARTTAMDYWGEGTLVTVSSASTKGPSVFPLAPSSKSTSGGTAALGCLVKDYFPEPVTVSWNSGALTSGVHTFPAVLQSSGLYSLSSVVTVPSSSLGTQTYICNVNHKPSNTKVDKKVEPKSCDKTHTCPPCPAPELLGDDSVFLFPPKPKDTLMISRTPEVTCVVVDVSDEDGEVKFNWYVDGVEVHNAKTKPREEQDNSTYRVVSVLTVLHQDWLNGKEYKCKVSNKALPRPIEKTISKAKGQPREPQVYTLPPSRDELTKNQVSLTCLVKGFYPSDIAVEWESNGQPENNYKTTPPVLDSDGSFFLYSKLTVDKSRWQQGNVFSCSVMHEALHNHYTQESLSLSP
light: not shown
notes: EU numbering; copies: 2 + 2
In the case of B5, the Kd in [9] turned out to be 40 µM.

B6: IL6R-BP494/IL6R-L (antibody, human IgG1, kappa, name in EU numbering)
heavy: QVQLQESGPGLVKPSETLSLTCAVSGHSISHDHAWSWVRQPPGEGLEWIGFISYSGITNYNPSLQGRVTISRDNSKNTLYLQMNSLRAEDTAVYYCARSLARTTAMDYWGEGTLVTVSSASTKGPSVFPLAPSSKSTSGGTAALGCLVKDYFPEPVTVSWNSGALTSGVHTFPAVLQSSGLYSLSSVVTVPSSSLGTQTYICNVNHKPSNTKVDKKVEPKSCDKTHTCPPCPAPELLGDDSVFLFPPKPKDTLMISRTPEVTCVVVDVAEEDGEVKFNWYVDGVEVHNAKTKPREEQDNSTYRVVSVLTVLHQDWLNGKEYKCKVSNKALPRPIEKTISKAKGQPREPQVYTLPPSRDELTKNQVSLTCLVKGFYPSDIAVEWESNGQPENNYKTTPPVLDSDGSFFLYSKLTVDKSRWQQGNVFSCSVMHEALHNHYTQESLSLSP
light: not shown
notes: copies: 2 + 2
For the molecule B6, in assay [10], the “KD(IIaH)/KD(IIb)” value was 821. The results for the Kd in assay [11] and in assay [12] were 0.0065 µM and 54 µM, respectively. For the same molecule, the “KD(IIaR) OF PARENT POLYPEPTIDE/KD(IIaR) OF ALTERED POLYPEPTIDE” value in [13] amounted to 4.3. Besides, the “KD(IIb) OF PARENT POLYPEPTIDE/KD(IIb) OF ALTERED POLYPEPTIDE” value in [14] was 471. In assay [15], the “KD(IIaR)/KD(IIb)” value was 38.6.

The values above are taken from patent publication US20240279325A1 (Chugai, published 2024).
